The target in series [1] is recombinant full-length BmExd1 (Bombyx mori). The series can be described thus: AUC.
Another series has as its target T1, BmExd1 full-length (UniProt H9IUR0 1-315).
T1 sequence: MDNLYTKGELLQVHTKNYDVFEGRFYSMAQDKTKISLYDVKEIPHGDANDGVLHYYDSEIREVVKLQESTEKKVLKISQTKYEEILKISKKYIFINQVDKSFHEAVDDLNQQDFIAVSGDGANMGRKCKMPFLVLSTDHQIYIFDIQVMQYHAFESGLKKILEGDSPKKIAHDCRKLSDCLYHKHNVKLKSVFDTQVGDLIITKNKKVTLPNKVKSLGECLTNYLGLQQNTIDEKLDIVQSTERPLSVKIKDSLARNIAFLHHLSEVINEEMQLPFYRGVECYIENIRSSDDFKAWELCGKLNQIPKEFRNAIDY
The series can be described thus: ITC. On the technique in general: In ITC the heat of successive injections is recorded.

The term stoichiometry N denotes a count of units in the complex or per binding partner. In general, Kd refers to a measure of binding affinity in units of concentration.

As to “recombinant full-length BmExd1 (natural protein)”, the stoichiometry N in series [1] came out at 2.
In the case of GGGGUAUUCUUUAAUUAUUUC (ssRNA) [ITC RNA (21 nt)], in the series with BmExd1 full-length, the Kd was determined as 27 µM.
